These results are taken from PMC5309844.

This experiment addresses full-length recombinant human NR1 protein (human) (UniProt Q05586).

Chain of recombinant human PDI (P07237 18-508): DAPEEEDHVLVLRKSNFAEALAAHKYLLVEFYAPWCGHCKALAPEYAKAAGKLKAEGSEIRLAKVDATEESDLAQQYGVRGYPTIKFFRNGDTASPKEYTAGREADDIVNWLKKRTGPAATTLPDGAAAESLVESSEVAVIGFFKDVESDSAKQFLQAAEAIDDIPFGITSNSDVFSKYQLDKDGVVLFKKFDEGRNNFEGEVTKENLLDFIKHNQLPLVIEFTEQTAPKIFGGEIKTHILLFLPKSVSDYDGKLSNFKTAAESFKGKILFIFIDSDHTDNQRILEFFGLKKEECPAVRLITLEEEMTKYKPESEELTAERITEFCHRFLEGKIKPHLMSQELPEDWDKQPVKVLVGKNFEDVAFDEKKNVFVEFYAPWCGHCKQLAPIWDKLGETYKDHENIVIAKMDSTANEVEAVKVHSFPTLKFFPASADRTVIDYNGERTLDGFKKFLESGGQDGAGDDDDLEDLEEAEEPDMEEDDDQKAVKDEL

With “recombinant human PDI (from UniProt P07237 18-508) (enzyme)”, the amount of thiols on recombinant NR1 protein after 2 h with recombinant PDI at room temperature (in vitro thiol reductase assay, modified biotin switch and Western blot), against vehicle amounted to 3.2 fold.
